Measurements reported in US20240026407A1, “MODIFICATION OF SAPONINS” (GLAXOSMITHKLINE BIOLOGICALS SA, priority 2020, published 2024).
Residue numbers refer to the chain shown, from its start. In names and notes the source's numbering stands. Each block holds one molecule with its values, some of them ahead of it.

Legend:
[1] = Example 9: screening of rhamnosidase variants for derhamnosylation of saponins in crude bark extract; format: biochemical, Quillaja saponaria; details: 18 h, CBE 75% v/v, 100 mM Sodium acetate pH 5.8; for Cumulative FIOP from WT: estimate
Method: Libraries of genetic variants encoding mutations in the wild type Kribbella flavida rhamnosidase (SEQ ID No. 1017) were prepared using molecular biology techniques, enzymes were prepared linked to a C-terminally located His-tag. Single monoclonal colonies were grown in 400 ul of expression medium and protein expressed. Cell pellets were lysed in 200 ul of the relevant buffer (Table 17).
Lysate was diluted appropriately in the relevant buffer to allow a lysate loading of the indicated % loading (1% loading corresponds to use of 2 ul original lysate in a 200 ul reaction).
Crude bark extract (CBE) obtained by aqueous extraction of Quillaja saponaria and containing at least 2.80 mg/ml QS-21 (by HPLC-UV) was adjusted to pH 6 by dropwise addition of 2M NaOH with stirring. The relevant concentration of the relevant glucosidase was added. The appropriate relative volume of pH 6 CBE (160 ul (for 80%) or 150 ul (for 75%)) was added to each well of the reaction plate. The reaction plate was sealed and incubated at the relevant temperature and time.
The reaction plate was quenched by adding 200 uL of MeCN (2% AcOH, 1 mg/mL hexanophenone) to each well of the plates. The quenched reaction plate was re-sealed and incubated at 20 deg C. with shaking for 10 min. The reaction plate was then centrifuged (10 min, 4 degC).
200 uL was transferred from each well of the quenched plate to the corresponding wells of a fresh 96 well plate and sealed. The plate was analysed by UV HPLC with the method described in Example 4.
Three key peaks of interest are apparent using this chromatography: Left Peak (retention time approximately 2.30-2.35 min) comprising mainly QS-17 family components; Middle Peak (retention time approximately 2.37-2.42 min) comprising mainly QS-18 family components and desglucosyl-QS-17 family components; and Right Peak (retention time approximately 2.44-2.50 min) comprising mainly QS-21 family components. Peak identity was supported by MS/MS.
Enzyme activity is calculated as the % conversion of the Left Peak present in the crude bark extract: […]

[2] = Example 10: derhamnosylation of saponins in crude bark extract (50%) using WT and engineered rhamnosidases R1 to R5; format: biochemical, Quillaja saponaria; details: 7 h, 50% CBE, 35 degC; for % Right Peak: starting CBE 26; for % Left Peak: starting CBE 30; for % Middle Peak: starting CBE 44
Method: Lyophilised powders from clarified cell lysate expressing glucosidases (from Example 8 WT glucosidase and engineered glucosidase polypeptides G1 to G5) and rhamnosidases (from Example 9 WT rhamnosidase and engineered rhamnosidase polypeptides R1 to R5) were dissolved in 200 mM sodium acetate aqueous solution at pH 5.8 to prepare the enzyme solutions at 4 fold the final reaction concentration as shown in Tables 19 and 20.
Each rhamnosidase solution was combined with an equal volume of 200 mM sodium acetate aqueous solution at pH 5.8 and separately with an equal volume of 200 mM sodium acetate aqueous solution at pH 5.8 containing 2 mg/ml glucosidase G5. This is a sufficient loading of glucosidase to effect complete hydrolysis of the relevant glucose moiety within 4 hours.
CBE was adjusted to pH of 6.0 to 6.2 with 2M sodium hydroxide and an equal volume added to the enzyme solution to prepare the reaction mix (i.e. 50% CBE concentration in reaction mix) and the concentration of glucosidase and/or rhamnosidase is shown in Tables 19 and 20. The reaction mix was heated to 35 degC for the time indicated in Tables 19 and 20, after which the reaction was quenched by addition of an equal volume of MeCN containing 2% acetic acid and shaken at room temperature for 10 mins prior to centrifugation (10 min, 4 degC) to remove particulates. Samples were analysed by UV HPLC using method of Experiment 4-4.
The change in composition of the Left, Middle and Right peaks is shown in Tables 19 and 20. The composition changes by the action of the enzymes depending on the presence or absence of the partner enzyme. The extent of reaction is proportional to the enzyme concentration and the reaction time under these conditions. The tables show data for enzyme concentrations and the reaction times providing for equivalent extents of reaction. The improvement resulting from the mutations introduced for each variant is equal to the fold change in enzyme concentration×time (i.e. fold improvement=(enzyme concentration×time) for preceding variant÷(enzyme concentration×time) for later variant). A cumulative fold improvement over the original enzyme variant is calculated by the product of the individual fold improvements.

[3] = R3 round: 35 deg C, lysate 0.4% v/v
[4] = R4 round: 35 deg C, lysate 0.125% v/v
[5] = R4 round: 35 deg C, lysate 0.125% v/v, negative control 26.09
[6] = R4 round: 35 deg C, lysate 0.125% v/v, negative control 29.62
[7] = R4 round: 35 deg C, lysate 0.125% v/v, negative control 44.29
[8] = R4 round: 35 deg C, lysate 0.125% v/v, negative control 46.84
[9] = rhamnosidase 0.63 mg/ml + glucosidase G5 0.5 mg/ml
[10] = rhamnosidase 0.63 mg/ml, no glucosidase
[11] = rhamnosidase 0.31 mg/ml + glucosidase G5 0.5 mg/ml
[12] = rhamnosidase 0.31 mg/ml, no glucosidase

Right Peak % ([1]; R3 round: 35 deg C, lysate 0.4% v/v, negative control 26.60): 29.45%
Left Peak % ([1]; R3 round: 35 deg C, lysate 0.4% v/v, negative control 28.91): 18.85%
Middle Peak % ([1]; R3 round: 35 deg C, lysate 0.4% v/v, negative control 44.49): 51.70%
Right Peak % [1, 5]: 26.56%
Left Peak % [1, 6]: 27.65%
Middle Peak % [1, 7]: 45.79%
Cumulative Fold improvement in primary enzyme loading × time [2, 9]: 8
Fold improvement in primary enzyme loading × time [2, 9]: 2.0
Cumulative Fold improvement in primary enzyme loading × time [2, 10]: 8
Fold improvement in primary enzyme loading × time [2, 10]: 2.0
B1: Variant R3: engineered rhamnosidase polypeptide, variant of Kribbella flavida rhamnosidase SEQ ID No. 1017 (protein)
chain: MSFPAAPARLRFEHRTDPGPVLGIGTATPRLSWQVPTAPDDYRQAGYEVEIARGDAAPEQYTVDSADQVLVPWPGTPLAARESATVRVRVRGDGDWSQWSDPATVEAGLLSADDWTARFVSPRENAGHEAPAPLIGGVIDLPPDIAQARLYATAHGIYEPTLNGTRVGDEQLAPGWTAYEQRLRYQTYDVTDLVAPGENRLELLVGNGWYRGRMGFHGGHSLYGDRLAVLAQLEVTTATGEVKVLASDGTWTTRETNVLADDLYDGQHVDLRRTLGEPGPVDVLDADLSLLVAPDGPPVRVTDVLPAKAVTTSPAGKTLVDFGQNVVGRLRLRVRGGAAGDEIVLRHAEVLEDGELCVRPLRTAKATDSFVLAGPDEVTLEPTLTFHGFRYAEITGVPDLRAEDVEAVVVGSDLRRTGWFESSHPLLDRFHENVVWGMRGNFLDVPTDCPQRDERLGWTGDIQVFSPTASFLFDTAGFLTNWLADLIAEQHKDGSVPFVVPDVLRQPGPATAAWGDAATIVPWVLYERTGDAGLLARQLPSMRAWVDRMAGLAGDDLLWVGGFQFGDWLDPTAPPDDPFRAKADPDVLATAHLARSAEVVALAAEVVGAGELAREYAELAARVRQAFAAEYTTGSGRVLSDAATNYALALQWALLPTEAQRKRAGERLADLVRTAGFRISTGFVGTPLMADALADSGHPDLAYRLLLETGCPSWLYAVTMDATTVWERWDSMLPDGSINPGQMTSFNHYALGAVADWMHRRVAGLAPGDPGYRRIVVDPLFTAHLTKASARHLTPYGEAAVAWSRSGGRVRLEVTVPVGARARVAVPGESAPVEVGHGTHEWTADDVYGETPPLPADATIRQLIDHEPSWTTLAAAATRTGIVADDAELAGRLERYLDHPATELVDAVSPRGFSPSAEALHAELDSVLGR
modifications: Seq ID No. 1017 with mutations A143P, L214M, K219G, Q921H, G357C
% conversion (Right peak/Left Peak) (−neg control) [1, 3]: 13.06%
Cumulative FIOP from WT [1, 3]: 9.4
% conversion (Right peak/Left Peak) ([1]; R3 round: 35 deg C, lysate 0.4% v/v, negative control 47.91): 60.97%
FIOP (% area increase variant/pos control) ([1]; R3 round: 35 deg C, lysate 0.4% v/v, positive control R2): 3.3
% conversion (Right peak/Left Peak) (−neg control) [1, 4]: 2.16%
% conversion (Right peak/Left Peak) [1, 8]: 49.00%
% change in Left Peak [2, 9]: −38%
% change in Middle Peak [2, 9]: −99%
% change in Right Peak [2, 9]: 311%
% Right Peak [2, 9]: 81%
% Left Peak [2, 9]: 19%
% Middle Peak [2, 9]: 0%
% change in Left Peak [2, 10]: −45%
% change in Middle Peak [2, 10]: 21%
% change in Right Peak [2, 10]: 116%
% Right Peak [2, 10]: 30%
% Left Peak [2, 10]: 16%
% Middle Peak [2, 10]: 53%

Right Peak % [1, 5]: 27.00%
Left Peak % [1, 6]: 25.03%
Middle Peak % [1, 7]: 47.96%
Right Peak % ([1]; R5 round: 35 deg C, lysate 0.0625% v/v, negative control 26.23): 26.79%
Left Peak % ([1]; R5 round: 35 deg C, lysate 0.0625% v/v, negative control 28.76): 27.09%
Middle Peak % ([1]; R5 round: 35 deg C, lysate 0.0625% v/v, negative control 45.00): 46.12%
Cumulative Fold improvement in primary enzyme loading × time [2, 11]: 16
Fold improvement in primary enzyme loading × time [2, 11]: 2.0
Cumulative Fold improvement in primary enzyme loading × time [2, 12]: 16
Fold improvement in primary enzyme loading × time [2, 12]: 2.0
B2: Variant R4: engineered rhamnosidase polypeptide, variant of Kribbella flavida rhamnosidase SEQ ID No. 1017 (protein)
chain: B1 chain with G215S, G218N, G508S, G634A
modifications: Seq ID No. 1017 with mutations A143P, L214M, G215S, G218N, K219G, G357C, G508S, G634A, Q921H
% conversion (Right peak/Left Peak) (−neg control) [1, 4]: 5.06%
Cumulative FIOP from WT [1, 4]: 22.1
% conversion (Right peak/Left Peak) [1, 8]: 51.89%
FIOP (% area increase variant/pos control) ([1]; R4 round: 35 deg C, lysate 0.125% v/v, positive control R3): 2.3
% conversion (Right peak/Left Peak) (−neg control) ([1]; R5 round: 35 deg C, lysate 0.0625% v/v): 2.02%
% conversion (Right peak/Left Peak) ([1]; R5 round: 35 deg C, lysate 0.0625% v/v, negative control 47.70): 49.72%
% change in Left Peak [2, 11]: −42%
% change in Middle Peak [2, 11]: −93%
% change in Right Peak [2, 11]: 306%
% Right Peak [2, 11]: 79%
% Left Peak [2, 11]: 17%
% Middle Peak [2, 11]: 3%
% change in Left Peak [2, 12]: −45%
% change in Middle Peak [2, 12]: 22%
% change in Right Peak [2, 12]: 115%
% Right Peak [2, 12]: 30%
% Left Peak [2, 12]: 16%
% Middle Peak [2, 12]: 54%
